FireProtDB (doi:10.1021/bi9912950)
Where “and” joins values, the source holds several entries; their conditions need not be identical. Identical values can stand only once.

Conditions: Bos taurus, 25 °C, CD, Ammonium acetate 0.1 M, reversible: yes, whole UniProt chain shown

B1: Oxytocin-neurophysin 1 wild type, P01175 (protein)
chain: MAGSSLACCLLGLLALTSACYIQNCPLGGKRAVLDLDVRTCLPCGPGGKGRCFGPSICCGDELGCFVGTAEALRCQEENYLPSPCQSGQKPCGSGGRCAAAGICCSPDGCHEDPACDPEAAFSQH
With B1 the denaturant m value (pH 6, GdnHCl) was 1.6 kcal/mol/M and 1.1 kcal/mol/M, the unfolding free energy (pH 6, GdnHCl) was 6.8 kcal/mol and 3.1 kcal/mol and the denaturant m value (pH 8, GdnHCl) was 1.5 kcal/mol/M and 1.1 kcal/mol/M. For the same protein, the unfolding free energy (pH 8, GdnHCl) was 4.9 kcal/mol and 3 kcal/mol, the denaturant m value (pH 8, Urea) was 0.7 kcal/mol/M and 0.4 kcal/mol/M and the unfolding free energy (pH 8, Urea) was 4.4 kcal/mol and 2.4 kcal/mol. The denaturant m value (pH 10, GdnHCl) was 0.9 kcal/mol/M and 1 kcal/mol/M and the unfolding free energy (pH 10, GdnHCl) was 2.7 kcal/mol and 2.6 kcal/mol.
